Reference: US10358467B2, “Therapeutic targets for cancer progression” (The Regents of the University of California, priority 2015, dated 2019)

What was measured:
Akt = Akt phosphorylation (pAkt S473) immunoblot in HeLa cells; format: cell-based; conditions: 10 μM, 6 h, DAPLE-depleted HeLa cells transfected with myc-DAPLE WT
Protocol: For immunoblotting, protein samples were separated by SDS-PAGE and transferred to PVDF membranes (Millipore). Membranes were blocked with PBS supplemented with 5% nonfat milk (or with 5% BSA when probing for phosphorylated proteins) before incubation with primary antibodies. Infrared imaging with two-color detection and band densitometry quantifications were performed using a Li-Cor Odyssey imaging system exactly as done previously (Garcia-Marcos et al, 2011a; Garcia-Marcos et al, 2010; Garcia-Marcos et al, 2012; Garcia-Marcos et al, 2011b; Ghosh et al, 2010). All Odyssey images were processed using Image J software (NIH) and assembled into figure panels using Photoshop and Illustrator software (Adobe).

Rac1 = Rac1 activity pulldown assay with GST-PBD in HeLa cells; format: cell-based; conditions: 10 μM, 6 h, DAPLE-depleted HeLa cells transfected with myc-DAPLE WT
Protocol: Rac1 activity in HeLa cells lines was monitored using GST-tagged PAK1-binding domain (PBD; pGEX-PBD) as described previously (Benard & Bokoch, 2002). Briefly, Escherichia coli strain BL21 bacteria transformed with pGEX-PBD were grown at 37° C. and GST-PBD expression was induced at OD600 with 1 mM IPTG for 3 h at 37° C. with shaking. Bacterial lysates were prepared as described above in protein purification section, cleared of debris by centrifugation and subsequently aliquots of lysates were stored at −80° C. until use. Aliquots of bacterial lysates were thawed, cleared of precipitated proteins by centrifugation at 14,000×g for 20 min, and the cleared supernatant was subsequently incubated with glutathione beads overnight at 4° C. with constant tumbling to prepare purified bead-bound GST-PBD freshly for each assay.
To analyze the role of DAPLE in regulation of Rac1 activity HeLa cells were used. For assays done on cells at steady-state, cells were maintained overnight in a media containing 2% or 0.2% FBS prior to lysis. […]

Gαi1 = target: T1, Gαi1 (Rattus norvegicus, UniProt P10824); experiment: GST pulldown of His-DAPLE-CT with GST-Gαi1; format: binding
T1 construct: made in house; host or cells: E. coli BL21 (DE3)
T1 sequence (P10824 whole entry): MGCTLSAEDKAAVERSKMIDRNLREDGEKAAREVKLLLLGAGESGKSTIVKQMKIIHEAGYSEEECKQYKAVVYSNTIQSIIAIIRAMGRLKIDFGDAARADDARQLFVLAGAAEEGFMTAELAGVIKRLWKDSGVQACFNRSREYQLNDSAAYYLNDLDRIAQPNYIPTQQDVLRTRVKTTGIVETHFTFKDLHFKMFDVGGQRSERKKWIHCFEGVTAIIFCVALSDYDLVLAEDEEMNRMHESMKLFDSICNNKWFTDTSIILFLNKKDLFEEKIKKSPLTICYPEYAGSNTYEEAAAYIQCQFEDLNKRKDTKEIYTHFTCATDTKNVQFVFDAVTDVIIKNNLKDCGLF

Gαi2 = target: T2, Gαi2 (Rattus norvegicus, UniProt P04897); experiment: GST pulldown of His-DAPLE-CT with GST-Gαi2; format: binding; conditions: compared to Gαi1 and Gαi3
T2 construct: made in house; host or cells: E. coli BL21 (DE3)
T2 sequence (P04897 whole entry): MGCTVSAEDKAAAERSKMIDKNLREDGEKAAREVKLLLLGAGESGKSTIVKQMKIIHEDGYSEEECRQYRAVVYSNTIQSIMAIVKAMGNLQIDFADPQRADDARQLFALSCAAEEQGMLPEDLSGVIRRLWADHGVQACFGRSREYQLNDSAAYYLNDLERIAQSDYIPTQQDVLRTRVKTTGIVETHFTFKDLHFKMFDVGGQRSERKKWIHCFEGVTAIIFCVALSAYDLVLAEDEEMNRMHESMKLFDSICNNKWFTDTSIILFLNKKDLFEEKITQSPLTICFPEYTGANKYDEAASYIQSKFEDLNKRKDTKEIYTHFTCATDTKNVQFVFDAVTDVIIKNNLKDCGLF

GST-FZD7R-CT = target: T3, GST-FZD7R-CT (Homo sapiens, UniProt O75084); experiment: GST-FZD7-CT pulldown of His-Gαi3; format: binding; conditions: His-Gαi3 preloaded with GDP, in the presence of DAPLE-CT
T3 construct: the GST-tagged cytoplasmic tail of FZD7R; made in house; host or cells: bacteria (E. coli BL21 (DE3)); plasmid a gift of R. Yao
Protocol: GST-FZD7-CT and GST-PBD constructs were immobilized on glutathione-Sepharose beads directly from bacterial lysates by overnight incubation at 4° C. with constant tumbling. Next morning, GST-FZD7-CT immobilized on glutathione beads were washed and subsequently incubated with His-tagged DAPLE-CT or Gαi3 proteins at 4° C. with constant tumbling. Washes and immunoblotting were performed as previously.

Gαo = target: T4, Gαo (Rattus norvegicus, UniProt P59215); experiment: GST pulldown of His-DAPLE-CT with GST-Gαo; format: binding
T4 construct: made in house; host or cells: E. coli BL21 (DE3)
T4 sequence (P59215 whole entry): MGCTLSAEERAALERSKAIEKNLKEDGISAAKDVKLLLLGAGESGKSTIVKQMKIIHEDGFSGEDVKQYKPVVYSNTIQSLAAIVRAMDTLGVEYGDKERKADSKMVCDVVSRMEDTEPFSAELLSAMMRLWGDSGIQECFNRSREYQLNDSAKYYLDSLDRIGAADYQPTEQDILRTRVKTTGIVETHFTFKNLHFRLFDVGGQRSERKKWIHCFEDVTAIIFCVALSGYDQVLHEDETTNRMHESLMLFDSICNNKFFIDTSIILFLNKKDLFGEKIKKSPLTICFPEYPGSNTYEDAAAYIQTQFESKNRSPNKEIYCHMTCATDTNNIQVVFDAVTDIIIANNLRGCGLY

His-Gαi3 [1] = target: T5, His-Gαi3 (Rattus norvegicus, UniProt P08753); experiment: GTPγS binding assay; format: biochemical; conditions: 0-2 μM, 15 min
T5 construct: His; made in house; host or cells: E. coli BL21 (DE3)
Protocol: GTPγS binding was measured using a filter binding method as described previously (Garcia-Marcos et al, 2010; Garcia-Marcos et al, 2011b). His-Gαi3 (100 nM) was preincubated with different concentrations of His-DAPLE-CT (aa 1650-2028) for 15 min at 30° C. in assay buffer [20 mM Na-HEPES, pH 8, 100 mM NaCl, 1 mM EDTA, 25 mM MgCl2, 1 mM DTT, 0.05% (w:v) C12E10]. Reactions were initiated at 30° C. by adding an equal volume of assay buffer containing 1 μM [^35S] GTPγS (˜50 c.p.m/fmol). Duplicate aliquots (25 μl) were removed at different time points, and binding of radioactive nucleotide was stopped by addition of 3 ml, ice-cold wash buffer (20 mM Tris-HCl, pH 8.0, 100 mM NaCl, 25 mM MgCl2). The quenched reactions were rapidly passed through BA-85 nitrocellulose filters (GE Healthcare) and washed with 4 ml wash buffer. Filters were dried and subjected to liquid scintillation counting. To determine the specific nucleotide binding, the background [^35S]GTPγS detected in the absence of G protein was subtracted from each reaction and data expressed as percentage of the [^35S] GTPγS bound by His-Gαi3 in the absence of His-DAPLE-CT.

Gαi3 = target: T6, Gαi3 (Rattus norvegicus, UniProt P08753); experiment: GST pulldown of His-DAPLE-CT with GST-Gαi3; format: binding
T6 construct: made in house; host or cells: E. coli BL21 (DE3)
Protocol: Purified GST-Gαi3 or GST alone (5 μg) were immobilized on glutathione-Sepharose beads and incubated with binding buffer [50 mM Tris-HCl (pH 7.4), 100 mM NaCl, 0.4% (v:v) Nonidet P-40, 10 mM MgCl2, 5 mM EDTA, 30 μM GDP, 2 mM DTT, protease inhibitor mixture] for 90 min at room temperature as described before (Garcia-Marcos et al, 2011a; Ghosh et al, 2010; Ghosh et al, 2008; Lin et al, 2011). Lysates (˜250 μg) of Cos7 cells expressing appropriate myc-DAPLE constructs or purified His-DAPLE-CT (aa 1650-2028) protein (3 μg) were added to each tube, and binding reactions were carried out for 4 h at 4° C. with constant tumbling in binding buffer [50 mM Tris-HCl (pH 7.4), 100 mM NaCl, 0.4% (v:v) Nonidet P-40, 10 mM MgCl2, 5 mM EDTA, 30 μM GDP, 2 mM DTT]. Beads were washed (4×) with 1 mL of wash buffer [4.3 mM Na2HPO4, 1.4 mM KH2PO4 (pH 7.4), 137 mM NaCl, 2.7 mM KCl, 0.1% (v:v) Tween 20, 10 mM MgCl2, 5 mM EDTA, 30 μM GDP, 2 mM DTT] and boiled in Laemmli's sample buffer. In some experiments the ‘active’ conformation of the G protein was stabilized by replacing GDP in the binding and wash buffers with 30 μM GTPγS or a mixture of 30 μM GDP/30 μM AlCl3/10 mM NaF. Immunoblot quantification was performed by infrared imaging following the manufacturer's protocols using an Odyssey imaging system (Li-Cor Biosciences).

[2] = target: T7, GST-Gαi3·Gβγ preformed complexes (Rattus norvegicus, UniProt P08753); experiment: Gβγ displacement assay; format: binding; conditions: 0.05-1 μM WT or 1 μM F1675A
T7 construct: made in house; host or cells: E. coli BL21 (DE3) for GST-Gαi3; Gβγ endogenous from HEK293T lysate
Protocol: This assay was performed as described previously (Garcia-Marcos et al, 2009). Briefly, GST alone or GST-Gαi3 proteins immobilized on glutathione-agarose beads were incubated overnight at 4° C. with HEK293T cell lysates in binding buffer [50 mM Tris-HCl, pH 7.4, 100 mM NaCl, 0.4% (v:v) NP-40, 10 mM MgCl2, 5 mM EDTA, 2 mM DTT, protease inhibitor cocktail supplemented with 30 μM GDP]. Unbound Gβγ-subunits were washed twice with the same buffer and proteins bound to the glutathione-agarose beads divided into equal aliquots containing ˜5 μg (˜0.4 μM) GST-fusion proteins. Aliquots were incubated with increasing concentrations (0.05-1 μM) of purified His-DAPLE-CT (1650-2028) wild-type or 1 μM His-DAPLE-CT F1675A in binding buffer supplemented with GDP (˜200 μl) for 5 h at 4° C. Glutathione-agarose beads were washed and bound proteins eluted by boiling in Laemmli sample buffer and separated by SDS-PAGE.

His-Gαi3 [3] = target: T5, His-Gαi3; experiment: Steady-state GTPase assay; format: biochemical; conditions: in vitro assays
Protocol: Under the experimental conditions of steady-state GTPase assays, GTP hydrolysis occurs as a two-step reaction, i.e., 1) GDP is released from the G protein and exchanged for GTP, and 2) the GTP loaded is hydrolyzed. Nucleotide exchange is the rate limiting step in this process because it is ˜50-100 times slower than GTP hydrolysis by Gαi subunits (Mukhopadhyay & Ross, 2002). Thus, the steady-state GTPase activity reflects the rate of nucleotide exchange, and was performed as described previously (Garcia-Marcos et al, 2010; Garcia-Marcos et al, 2012; Garcia-Marcos et al, 2011b). Briefly, His-Gαi3 (100 nM) was preincubated with different concentrations of His-DAPLE-CT (aa 1650-2028) for 15 min at 30° C. in assay buffer [20 mM Na-HEPES, pH 8, 100 mM NaCl, 1 mM EDTA, 2 mM MgCl2, 1 mM DTT, 0.05% (w:v) C12E10]. GTPase reactions were initiated at 30° C. by adding an equal volume of assay buffer containing 1 μM [γ-^32P]GTP (˜50 c.p.m/fmol). […] Samples were then centrifuged for 10 min at 10,000×g, and 500 μl of the resultant supernatant were scintillation counted to quantify released [^32P]Pi. For the time course experiments, data was expressed as raw c.p.m. For the dose-dependence curve experiments, the background [^32P]Pi detected at 15 min in the absence of G protein was subtracted from each reaction and data expressed as percentage of the Pi produced by His-Gαi3 in the absence of His-DAPLE-CT.

O=C1OC2(c3ccccc31)c1ccc(O)c(O)c1Oc1c2ccc(O)c1O [Gallein]
Akt activity (Akt): effectively inhibited | Rac1 activity (Rac1): effectively inhibited

B1: His-DAPLE-CT: purified His-tagged DAPLE C-terminus (aa 1650-2028, containing the GBA motif) (protein, listed as Homo sapiens)
chain: GTAPPYVGVRPCSASPSSEMVTLEEFLEESNRSSPTHDTPSCRDDLLSDYFRKASDPPAIGGQPGPPAKKEGAKMPTNFVAPTVKMAAPTSEGRPLKPGQYVKPNFRLTEAEAPPSVAPRQAQPPQSLSLGRPRQAPVPPASHAPASRSASLSRAFSLASADLLRASGPEACKQESPQKLGAPEALGGRETGSHTLQSPAPPSSHSLARERTPLVGKAGSSCQGPGPRSRPLDTRRFSLAPPKEERLAPLHQSATAPAIATAGAGAAAAGSGSNSQLLHFSPAAAPAARTKPKAPPRSGEVATITPVRAGLSLSEGDGVPGQGCSEGLPAKSPGRSPDLAPHLGRALEDCSRGSVSKSSPASPEPGGDPQTVWYEYGCV
modifications: His tag
binding to Gαi1 (Gαi1): interacts | binding to Gαi2 (Gαi2): partially reduced | increase of Gαi3 binding to GST-FZD7R-CT (GST-FZD7R-CT): ~5 fold | binding to Gαo (Gαo): not with Gαo | initial rate of nucleotide (GTPγS) binding by His-Gαi3 (His-Gαi3 [1]): increased | binding to Gαi3 (Gαi3): interacts | displacement of Gβγ from pre-assembled complex with GST-Gαi3 [2]: displaced | GEF activity, activation of nucleotide exchange (His-Gαi3 [3]): 2.5-3 fold
